Here are results for four molecules from patent publication US20170233490A1 (Hoffmann-La Roche, published 2017).

Test [1] deals with T1, HER3 ECD-HRG complex (human, UniProt P21860 20-643).
T1 construct: HER3 ECD preincubated with a 3- to 6-fold molar excess of Heregulin ('open' conformation); biotinylated Her3-ECD in the ribosome display; also called HER3-ECD/HRG1β
The test can be described thus: SPR Biacore 3000, sequential injection: HER3-ECD/HRG1β first, then HER2-ECD, 270 nM each. The procedure: (§1) A CM5 series sensor was mounted into the system and was normalized in HBS-ET buffer (10 mM HEPES pH 7.4, 150 mM NaCl, 3 mM EDTA, 0.005% w/v Tween 20) according to the manufacturer's instructions. The sample buffer was the system buffer supplemented with 1 mg/ml CMD (Carboxymethyldextran, Sigma #86524). The system operated at 25° C. 10000 RU monoclonal murine anti-human Fc antibody (MAK<h-Fc> M-R10Z8 E9, Roche Diagnostics GmbH, Penzberg, Germany) were immobilized using EDC/NHS chemistry on all four flow cells. The sensor was deactivated using 1M ethanolamine.
(§2) The association and dissociation rates were monitored for 10 minutes and 8 minutes, respectively.
For orientation: SPR reads the build-up and loss of mass on a sensor chip optically.

The target in test [2] is T1, HER3 ECD-HRG complex. Nature of the test: SPR Biacore 3000, antibody captured via anti-human Fc, 25 C. The method, then: as §1
For test [3], the target named is T1, HER3 ECD-HRG complex. Nature of the test: SPR Biacore 3000, sequential injection: HER2-ECD first, then HER3-ECD/HRG1β, 270 nM each. The method, then:
as §1, §2

Test [4] deals with T2, human HER1 (full length, on cells) (human, UniProt P00533 25-1210).
T2 construct: HEK293 cells transfected with full length HER1, fixed and embedded (IHC); also called EGFR
Nature of the test: IHC (Ventana Benchmark XT) on formalin-fixed, paraffin-embedded HEK293 cells transiently transfected with full length HER1. The method, then:
(§3) All selected clones were tested for reactivity and specificity in IHC. […] After an additional fixation in formalin overnight the Agarose blocks were embedded in paraffin. Untransfected HEK293 cells were used as negative controls and treated accordingly to the transfected cells. After paraffin embedding 3 μm thin sections were prepared using a microtome. The sections were mounted on glass microscopy slides and dried for 2 h. All further steps of the immunohistochemical staining procedure were carried out using a Ventana Benchmark XT. The slides were dewaxed and antigen retrieval was performed by applying heat for 1 hour. For antigen retrieval the Ventana buffer CC1 was used. The antibodies were used at a concentration of 1 μg/ml. For the detection of bound antibody the Ventana UltraView detection kit was used.

Test [5] concerns the target T3, human HER2 (full length, on cells) (human, UniProt P04626 23-1255).
T3 construct: HEK293 cells transfected with full length HER2 (IHC); MCF-7 cells (co-immunoprecipitation)
Nature of the test: IHC (Ventana Benchmark XT) on formalin-fixed, paraffin-embedded HEK293 cells transiently transfected with full length HER2. The procedure:
as §3

Test [6] concerns the target T4, TgSlyDΔIF.
T4 construct: scaffold without hairpin insert, negative control
T4 chain: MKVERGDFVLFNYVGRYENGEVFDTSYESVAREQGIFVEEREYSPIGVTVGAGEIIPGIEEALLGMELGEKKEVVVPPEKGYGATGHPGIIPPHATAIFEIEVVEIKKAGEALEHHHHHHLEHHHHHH
Nature of the test: ELISA, coated antigen 0.5 µg/ml, hybridoma supernatant. The method, then: (§4) For the ELISA the screening an antigen down format was used. […] Hybridoma Supernatant was added to the plates and incubated for 1 h at room temperature. Bound antibody was detected with a HRP-labeled F(ab′)₂ goat anti-mouse Fcγ (Dianova) and ABTS (Roche) was used as a HRP-substrate.
In general terms: ELISA stands for enzyme-linked immunosorbent assay.

For test [7], the target named is T5, TtSlyDcas.
T5 construct: scaffold without hairpin insert, negative control
T5 chain: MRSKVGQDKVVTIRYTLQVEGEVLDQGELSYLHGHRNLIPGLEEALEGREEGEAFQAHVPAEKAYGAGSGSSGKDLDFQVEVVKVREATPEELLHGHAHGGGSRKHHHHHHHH
The description is as above. The procedure:
as §4

The next test has as its target T6, TtSlyDcas-Her3.
T6 chain: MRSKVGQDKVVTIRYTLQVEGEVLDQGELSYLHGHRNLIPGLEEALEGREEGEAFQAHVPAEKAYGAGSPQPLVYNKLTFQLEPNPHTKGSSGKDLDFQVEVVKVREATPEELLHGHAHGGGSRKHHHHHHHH
The test can be described thus: ELISA, coated antigen. The procedure: as §4
(§5) As negative controls the scaffold proteins TtSlyDcas and TgSlyDΔIF were used.

A further test concerns the target T7, TgSlyDser-Her3.
T7 chain: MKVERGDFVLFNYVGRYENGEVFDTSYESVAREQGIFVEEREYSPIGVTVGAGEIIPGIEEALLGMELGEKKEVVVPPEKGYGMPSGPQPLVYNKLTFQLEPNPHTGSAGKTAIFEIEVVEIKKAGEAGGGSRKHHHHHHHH
Nature of the test: ELISA, coated antigen. The method, then:
as §4, §5

The next test deals with T8, TtSlyDcys-Her3.
T8 chain: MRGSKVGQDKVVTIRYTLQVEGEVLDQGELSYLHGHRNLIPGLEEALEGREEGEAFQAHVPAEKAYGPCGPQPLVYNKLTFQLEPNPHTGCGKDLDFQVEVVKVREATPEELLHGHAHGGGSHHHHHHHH
The test can be described thus: ELISA, coated antigen. The method, then:
as §4, §5

Test [8] addresses T4, TgSlyDΔIF. The test can be described thus: ELISA, coated antigen. The procedure:
as §4, §5

Test [9] deals with T9, human HER4 Extracellular Domain (ECD) (human, UniProt Q15303 26-651).
T9 construct: also called Her4 ECD; HER4-ECD
T9 sequence: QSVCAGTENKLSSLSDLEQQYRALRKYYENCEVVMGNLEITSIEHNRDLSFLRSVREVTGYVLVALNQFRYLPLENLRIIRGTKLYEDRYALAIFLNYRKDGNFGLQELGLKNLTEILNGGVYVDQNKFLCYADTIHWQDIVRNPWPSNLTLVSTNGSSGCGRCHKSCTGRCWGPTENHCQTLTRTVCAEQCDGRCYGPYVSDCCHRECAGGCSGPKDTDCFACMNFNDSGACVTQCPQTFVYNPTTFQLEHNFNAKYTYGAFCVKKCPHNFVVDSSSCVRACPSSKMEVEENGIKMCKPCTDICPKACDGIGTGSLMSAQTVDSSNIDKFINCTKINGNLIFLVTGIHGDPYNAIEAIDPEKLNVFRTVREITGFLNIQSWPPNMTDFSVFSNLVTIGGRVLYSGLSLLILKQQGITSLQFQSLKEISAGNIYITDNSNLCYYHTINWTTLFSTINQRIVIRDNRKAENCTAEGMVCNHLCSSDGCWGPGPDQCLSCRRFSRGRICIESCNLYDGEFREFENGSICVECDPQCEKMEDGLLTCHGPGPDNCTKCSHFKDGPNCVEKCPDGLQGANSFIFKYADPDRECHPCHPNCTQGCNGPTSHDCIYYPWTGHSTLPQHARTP
The test can be described thus: ELISA, coated antigen. The procedure:
as §4, §5

Test [10] has as its target T5, TtSlyDcas. Nature of the test: ELISA, coated antigen. The procedure: as §4, §5
The target of test [11] is T10, human HER3 Extracellular Domain (ECD) (human, UniProt P21860 20-643).
T10 construct: human recombinant, 68 kDa; 'closed' conformation without ligand; also called Her3 ECD; Her-3 ECD
Nature of the test: ELISA, coated antigen. The procedure:
as §4, §5

In test [12] the target is T11, human HER2 Extracellular Domain (ECD) (human, UniProt P04626 23-652).
T11 construct: human recombinant, 69.6 kDa; also called Her2 ECD; HER2_ECD
The test can be described thus: ELISA, coated antigen. The method, then: as §4, §5

Another test concerns the target T12, TgSlyDcys-Her3.
T12 chain: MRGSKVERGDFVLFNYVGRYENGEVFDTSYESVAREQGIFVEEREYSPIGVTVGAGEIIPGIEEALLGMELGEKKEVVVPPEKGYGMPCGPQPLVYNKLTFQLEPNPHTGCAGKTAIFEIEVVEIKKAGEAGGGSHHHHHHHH
The test can be described thus: ELISA, coated antigen. The method, then: as §4, §5

Test [13] concerns the target T13, human HER1 Extracellular Domain (ECD) (human, UniProt P00533 25-645).
T13 construct: also called Her1 ECD; HER1-ECD
Nature of the test: ELISA, coated antigen. The procedure: as §4, §5

Test [14] concerns the target T11, human HER2 Extracellular Domain (ECD). The test can be described thus: ELISA, coated antigen, hybridoma supernatant. The procedure:
as §4

Test [15] deals with T13, human HER1 Extracellular Domain (ECD). The test can be described thus: ELISA, coated antigen, hybridoma supernatant. The procedure:
as §4

B1: bispecific HER3/HER2 antibody DIBxPERT (bispecific antibody, human IgG1, kappa)
heavy 1: not shown
light 1: DIQMTQSPSSLSASVGDRVTITCKASQDVSIGVAWYQQKPGKAPKLLIYSASYRYTGVPSRFSGSGSGTDFTLTISSLQPEDFATYYCQQYYIYPYTFGQGTKVEIKSSASTKGPSVFPLAPSSKSTSGGTAALGCLVKDYFPEPVTVSWNSGALTSGVHTFPAVLQSSGLYSLSSVVTVPSSSLGTQTYICNVNHKPSNTKVDKKVEPKSC
heavy 2: not shown
light 2: QIVLTQSPAIMSASPGERVTITCSASSSVSYMHWFQQKPGTSPKLLIYSTSNLASGVPARFSGSGSGTSYSLTISRMEAEDAATYYCQQRSSYPFTFGSGTKLEIKRTVAAPSVFIFPPSDEQLKSGTASVVCLLNNFYPREAKVQWKVDNALQSGNSQESVTEQDSKDSTYSLSSTLTLSKADYEKHKVYACEVTHQGLSSPVTKSFNRGEC
notes: also called DIBxPERT CrossMab
B1: the “MR (molar ratio), first injection” value in the test with HER3 ECD-HRG complex [1] was 0.8. For the same molecule, in the test with HER3 ECD-HRG complex [2], the affinity, expressed as Kd, was 3.9 nM; the “MR (Molar Ratio)” value is 0.5; the off-rate (koff) (in general, a measure of how fast the partners let go of each other) was 0.00033 s⁻¹; the on-rate constant (kon) – broadly, the second-order rate constant of association – is 84000 M⁻¹ s⁻¹. The t1/2-diss with HER3 ECD-HRG complex [2] was determined as 35 min. Besides, the “MR (molar ratio), second injection” value with HER3 ECD-HRG complex [3] amounted to 0.7.

B2: M-15-02 (antibody, V domains shown)
VH: QVQLQQSGAELAKPGASVKMSCKTSGYTLTDYWIHWVKQRPGQGLEWIGYINPYTGYTESNQKFKDKATLTADKSSNTAYIQLSSLTSEDSAVYYCARPYYYGDYWGQGTTLTVSS
VL: QIVLTQSPAIMSASPGERVTITCSASSSVSYMHWFQQKPGTSPKLLIYSTSNLASGVPARFSGSGSGTSYSLTISRMEAEDAATYYCQQRSSYPFTFGSGTKLEIK
notes: murine hybridoma clone
Take B2: the binding result in test [4] is on record as “no binding (tested: 1 µg/ml)”; in test [5] it was “no binding (tested: 1 µg/ml)”; in the test with TgSlyDΔIF [6], “no binding”; in the test with TtSlyDcas [7], “no binding”; in test [14] it was “no binding”; in [15] it was “no binding”. Further, the ELISA signal with TtSlyDcas-Her3 came out at 1.76; with TgSlyDser-Her3, 1.98; with TtSlyDcys-Her3 it was 1.52; with TgSlyDΔIF [8], 0.04; in test [9], 3.19; with TtSlyDcas [10], 0.04. Further, the ELISA signal in [11] amounted to 3.15; in test [12] it was 0.025; in the test with TgSlyDcys-Her3 it was 1.78; in test [13], 0.024.

B3: M-15-04 (antibody, V domains shown)
VH: B2 VH
VL: B2 VL
notes: murine hybridoma clone
In the case of B3, the binding result is reported as “no binding (tested: 1 µg/ml)” in test [4]; “no binding (tested: 1 µg/ml)” in test [5]; “no binding” with TgSlyDΔIF [6]; “no binding” with TtSlyDcas [7]; “no binding” in test [14]; “no binding” in test [15]. In addition, the ELISA signal with TtSlyDcas-Her3 came to 1.85; in the test with TgSlyDser-Her3, 1.83; in the test with TtSlyDcys-Her3, 1.46; with TgSlyDΔIF [8] it was 0.033; in test [9], 3.19; in the test with TtSlyDcas [10], 0.04. The ELISA signal came to 3.17 in [11], 0.064 in test [12], 1.5 with TgSlyDcys-Her3 and 0.067 in test [13].

B4: DIB-MoAb (monovalent antibody based on M-05-74) (antibody, V domains shown)
VH: B2 VH
VL: B2 VL
notes: also called DIB-74 in the monovalent MoAb format; monovalent M-05-74
As for B4, in the test with HER3 ECD-HRG complex [2], binding was put at a Kd of 2.1 nM, the “MR (Molar Ratio)” value came to 0.6, the koff amounted to 0.00023 s⁻¹ and the on-rate constant (kon) came to 110000 M⁻¹ s⁻¹. Besides, the t1/2-diss with HER3 ECD-HRG complex [2] stood at 51 min.
